# From patent US11866502B2, “Anti-FGFR2 antibodies and methods of use thereof” (Regeneron Pharmaceuticals, Inc., priority 2020, dated 2024)
# Like-named read-outs stand apart in the source and are kept apart here.
# B1: Bemarituzumab: anti-FGFR2 therapy (antibody, chains of the INN, looked up, V domains shown)
# VH: QVQLVQSGAEVKKPGSSVKVSCKASGYIFTTYNVHWVRQAPGQGLEWIGSIYPDNGDTSYNQNFKGRATITADKSTSTAYMELSSLRSEDTAVYYCARGDFAYWGQGTLVTVSS
# VL: DIQMTQSPSSLSASVGDRVTITCKASQGVSNDVAWYQQKPGKAPKLLIYSASYRYTGVPSRFSGSGSGTDFTFTISSLQPEDIATYYCQQHSTTPYTFGQGTKLEIK
# B2: Comp1: Comparator (Five Prime Therapeutics): humanized anti-FGFR2b isoform antibody of Catenacci et al. (Bemarituzumab, FPA144) (antibody, chains of the INN, looked up, V domains shown)
# VH: B1 VH
# VL: B1 VL
# B3: Aprutumab ixodotin: FGFR2 antibody conjugated to auristatin (conjugate, chains of the INN, looked up)
# VH: EVQLLESGGGLVQPGGSLRLSCAASGFTFSSYAMSWVRQAPGKGLEWVSAISGSGTSTYYADSVKGRFTISRDNSKNTLYLQMNSLRAEDTAVYYCARVRYNWNHGDWFDPWGQGTLVTVSS
# VL: QSVLTQPPSASGTPGQRVTISCSGSSSNIGNNYVSWYQQLPGTAPKLLIYENYNRPAGVPDRFSGSKSGTSASLAISGLRSEDEADYYCSSWDDSLNYWVFGGGTKLTVL
# modifications: auristatin payload conjugate
# notes: FGFR2 antibody conjugated to auristatin
# B4: Aprutumab-TTC: anti-FGFR2 antibody, a chelator moiety covalently conjugated to the antibody, and the alpha particle-emitting radionuclide thorium-227 (conjugate, chains of the INN, looked up)
# VH: B3 VH
# VL: B3 VL
# modifications: chelator conjugate with thorium-227
# Legend:
# [1] = test system: SNU-16 cells; experiment: In vitro cytotoxicity assay (CellTiter-Glo 2.0), SNU-16 cells; type: cell-based, human; settings: for Max % Kill: SNU-16, up to 20 nM
# Protocol: (§1) To test the ability of anti-FGFR2 antibody drug conjugates (ADCs) disclosed herein to kill human cell lines, an in vitro cytotoxicity assay was performed. In vitro cytotoxicity of the anti-FGFR2 ADCs, isotype control ADCs, and reference free payloads were evaluated using the CellTiter-Glo 2.0 Assay Kit (Promega, Cat #G9243), in which the quantity of ATP present is used to determine the number of viable cells in culture. The payloads Maytansinoid 1A, Maytansinoid 1A* (a cell permeable equivalent of Maytansinoid 1A), and Tubulysin 1A were tested as free payloads, and the unconjugated antibodies, including comparator antibodies, were used as controls.
# (§2) Five-fold serial dilutions of anti-FGFR2 ADCs or isotype control ADCs were prepared in dilution media (Optimem+0.1% BSA) and added to cells at final concentrations ranging from 20 nM to 0.051 pM (concentrations were corrected for the DAR and are dosed based on the effective payload concentration). Five-fold serial dilutions of free payloads were prepared in 100% DMSO, transferred to fresh dilution media, and then added to the cells at a final constant DMSO concentration of 0.2% and final payload concentrations ranging from 20 nM to 0.051 pM. The last well in each dilution series served as an untreated control and included media alone or media plus 0.2% DMSO and was plotted as a continuation of the 5-fold serial dilution. Six days later, 100 uL of CellTiter Glo 2.0 was added to each well, plates were mixed for 2 minutes on an orbital shaker, and plates were incubated at room temperature for 10 minutes. Relative light units (RLUs) were measured on an Envision luminometer (Perkin Elmer) and cell viability was expressed as a percentage of the untreated (100% viable) cells. IC50 values were determined using a four-parameter logistic equation over a 10-point dose response curve (GraphPad Prism). The maximum % kill was also determined for each test article as follows: 100−minimum percent viability.
# [2] = test system: IM-9 cells; experiment: In vitro cytotoxicity assay (CellTiter-Glo 2.0), IM-9 cells; type: cell-based, human; settings: for Max % Kill: IM-9, up to 20 nM
# Protocol: as §1, §2
# [3] = test system: NCI-H716 cells; experiment: In vitro cytotoxicity assay (CellTiter-Glo 2.0), NCI-H716 cells; type: cell-based, human; settings: for Max % Kill: NCI-H716, up to 20 nM
# Protocol: as §1, §2
# [4] = test system: SNU-16 cells; experiment: In vitro bystander assay, SNU-16 monoculture; type: cell-based, human
# Protocol: as §2, with “The last well in each dilution series served as an untreated control and included media alone or media plus 0.2% DMSO and was plotted as a continuation of the 5-fold serial dilution. Six days later, 100 uL of CellTiter Glo 2.0 was added to each well, plates were mixed for 2 minutes on an orbital shaker, and plates were incubated at room temperature for 10 minutes.” left out
# (§3) The ability of the anti-FGFR2 ADCs to induce cytotoxicity in FGFR2 negative cells through release of the payload in FGFR2 positive cells, i.e., bystander activity, was also assessed. […] Cytotoxicity was assessed as described previously for tumor cell lines except that three-fold serial dilutions were performed for all test articles with concentrations ranging from 100 nM to 15.2 pM, and cells were incubated with test articles for 5 days.
# [5] = test system: SNU-16, MFM-223, NCI-H716, or IM-9 cells; experiment: In vitro cytotoxicity assay, several cell lines; type: cell-based, human
# Protocol: as §1
# as §2, with “Five-fold” for “Five-fold serial dilutions of anti-FGFR2 ADCs or isotype control ADCs were prepared in dilution media (Optimem+0.1% BSA) and added to cells at final concentrations ranging from 20 nM to 0.051 pM (concentrations were corrected for the DAR and are dosed based on the effective payload concentration). Five-fold”
# A comparator anti-FGFR2 ADC that recognizes both FGFR2b and FGFR2c and is conjugated to an auristatin payload (Comp2-BAY-LP) was also tested for cytotoxicity.
# [6] = test system: MFM-223 cells; experiment: In vitro cytotoxicity assay (CellTiter-Glo 2.0), MFM-223 cells; type: cell-based, human; settings: for Max % Kill: MFM-223, up to 20 nM
# Protocol: as §1, §2
# [7] = test system: SNU-16 + NALM-6 Cells; experiment: In vitro bystander assay, SNU-16 + NALM-6 coculture (1:1); type: cell-based
# Protocol: as §2, with “The last well in each dilution series served as an untreated control and included media alone or media plus 0.2% DMSO and was plotted as a continuation of the 5-fold serial dilution. Six days later, 100 uL of CellTiter Glo 2.0 was added to each well, plates were mixed for 2 minutes on an orbital shaker, and plates were incubated at room temperature for 10 minutes.” left out
# as §3
# [8] = test system: NALM-6 cells; experiment: In vitro bystander assay, NALM-6 monoculture; type: cell-based
# Protocol: as §2, with “The last well in each dilution series served as an untreated control and included media alone or media plus 0.2% DMSO and was plotted as a continuation of the 5-fold serial dilution. Six days later, 100 uL of CellTiter Glo 2.0 was added to each well, plates were mixed for 2 minutes on an orbital shaker, and plates were incubated at room temperature for 10 minutes.” left out
# as §3
# [9] = test system: FGFR2 positive tumors; settings: cited from earlier work
# [10] = biological target: T1, hFGFR2c.mmh (Homo sapiens, UniProt P21802); experiment: Biacore surface plasmon resonance binding kinetics to hFGFR2c.mmh; settings: 25° C.
# T1 construct: myc-myc-hexahistidine (MMH) (C); made in house
# Protocol: The equilibrium dissociation constants (KD values) for hFGFR2b.mmh binding to anti-FGFR2 antibodies conjugated with Tubulysin (“tubulysin 1ALP”), Auristatin (“auristatin LP1”), or mc-VC-PAB-NMe-C3-May (“maytansinoid 1ALP”) were determined using a real-time surface plasmon resonance biosensor assay on a Biacore 2000 or a Biacore 4000 instrument. The Biacore sensor surface was derivatized by amine coupling with a monoclonal mouse anti-human Fc antibody (REGN2567 or Jackson Cat. No #109-005-098) to capture anti-FGFR2 ADC and parent unmodified antibodies expressed with human constant regions. Biacore binding studies were performed in HBS-EP running buffer (0.01M HEPES pH 7.4, 0.15M NaCl, 3 mM EDTA, 0.05% v/v Surfactant P20). […] Association of hFGFR2b-MMH or hFGFR2c-MMH to each of the captured ADCs and monoclonal antibodies was monitored for 4 minutes. Subsequently, dissociation was monitored for 10 minutes in HBS-EP running buffer. […] Kinetic association (ka) and dissociation (kd) rate constants were determined by fitting the real-time sensorgrams to a 1:1 binding model using Scrubber 2.0c curve fitting software. […] Binding dissociation equilibrium constants (KD) and dissociative half-lives (t½) were calculated from the kinetic rate constants as: […]
# [11] = biological target: T2, hFGFR2b.mmh (Homo sapiens, UniProt P21802); experiment: Biacore surface plasmon resonance binding kinetics to hFGFR2b.mmh; settings: 25° C.
# T2 construct: myc-myc-hexahistidine (MMH) (C); made in house
# Protocol: The Biacore sensor surface was derivatized by amine coupling with a monoclonal mouse anti-human Fc antibody (REGN2567 or Jackson Cat. […] Human FGFR2b and Human FGFR2c were prepared in-house expressing a C-terminal myc-myc-hexahistidine tag ([…] NO: 57; […] NO: 58). […] Association of hFGFR2b-MMH or hFGFR2c-MMH to each of the captured ADCs and monoclonal antibodies was monitored for 4 minutes. Subsequently, dissociation was monitored for 10 minutes in HBS-EP running buffer. Anti-human Fc surface was regenerated by a brief injection of 20 mM H3PO4. All binding kinetic experiments were performed at 25° C. […] All sensorgrams were double referenced by subtracting buffer injection sensorgram signal from the corresponding analyte sensorgram, thereby removing artifacts caused by dissociation of the antibody from the capture surface. […] [formula]
# [12] = minimum tolerated dose below the therapeutic threshold estimated preclinically; trial terminated early; cited from earlier work
# [13] = test system: xenograft models; settings: several xenograft models; cited from earlier work
# T2 sequence (P21802 with tags, fused parts or gaps isoform P21802-3): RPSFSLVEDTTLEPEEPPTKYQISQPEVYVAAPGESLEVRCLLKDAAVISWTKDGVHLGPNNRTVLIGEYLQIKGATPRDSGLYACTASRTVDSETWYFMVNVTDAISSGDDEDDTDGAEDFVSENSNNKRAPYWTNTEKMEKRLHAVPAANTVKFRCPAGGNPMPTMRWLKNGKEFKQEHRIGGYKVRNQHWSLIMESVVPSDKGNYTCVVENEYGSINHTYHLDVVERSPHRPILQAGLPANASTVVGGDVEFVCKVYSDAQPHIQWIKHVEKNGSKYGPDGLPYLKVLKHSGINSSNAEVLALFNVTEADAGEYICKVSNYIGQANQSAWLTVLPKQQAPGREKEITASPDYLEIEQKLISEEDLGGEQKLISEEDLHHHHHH
# T1 sequence (P21802 with tags, fused parts or gaps): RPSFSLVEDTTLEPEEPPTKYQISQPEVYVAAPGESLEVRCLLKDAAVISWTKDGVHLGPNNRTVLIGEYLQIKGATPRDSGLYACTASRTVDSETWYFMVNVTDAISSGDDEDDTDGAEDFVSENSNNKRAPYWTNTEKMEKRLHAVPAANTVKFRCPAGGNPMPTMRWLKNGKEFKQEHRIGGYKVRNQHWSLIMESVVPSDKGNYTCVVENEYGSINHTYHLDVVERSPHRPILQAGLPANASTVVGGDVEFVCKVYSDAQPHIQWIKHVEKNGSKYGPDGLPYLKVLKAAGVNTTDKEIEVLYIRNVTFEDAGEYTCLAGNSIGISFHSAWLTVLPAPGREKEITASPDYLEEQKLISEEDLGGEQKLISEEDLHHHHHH
molecule,measurement,setting,value
C#CCCCON(C(=O)[C@@H](NC(=O)[C@H]1CCCCN1C)[C@@H](C)CC)[C@H](C[C@@H](OC(C)=O)c1nc(C(=O)N[C@@H](Cc2ccc(N)cc2)CC(C)(C)C(=O)O)cs1)C(C)C [Tubulysin 1A],IC50,"[1]; Homo sapiens, SNU-16, 144 h",0.00369 nM
same,Max % Kill,[1]; 6 days,95.1%
same,IC50,"[2]; Homo sapiens, IM-9, 144 h",0.0212 nM
same,Max % Kill,[2]; 6 days,94.6%
same,IC50,"[3]; Homo sapiens, NCI-H716, 144 h",0.0743 nM
same,Max % Kill,[3]; 6 days,84.9%
same,IC50,"[4]; Homo sapiens, SNU-16, 120 h",0.0184 nM
same,Max % Kill,"[4]; SNU-16 monoculture, 5 days",99.3%
same,IC50,"[5]; Homo sapiens, read-out: IC50 values",0.00369 to 0.0743 nM
same,IC50,"[6]; Homo sapiens, MFM-223, 144 h",0.00376 nM
same,Max % Kill,[6]; 6 days,89.7%
same,IC50,[7]; 120 h,0.166 nM
same,Max % Kill,"[7]; SNU-16 + NALM-6 1:1 coculture, 5 days",99.5%
same,IC50,"[8]; Homo sapiens, NALM-6, 120 h",0.0709 nM
same,Max % Kill,"[8]; NALM-6 monoculture, 5 days",99.9%
B1,treatment outcome,[9],improvements in early survival and advanced disease
B2,IC50,"[1]; SNU-16 (FGFR2b positive), 6 days, read-out: IC50",> 20 nM
same,Max % Kill,[1]; 6 days,0.0%
same,IC50,"[2]; IM-9 (non-FGFR2 expressing), 6 days, read-out: IC50",> 20 nM
same,Max % Kill,[2]; 6 days,3.8%
same,IC50,"[3]; NCI-H716 (low FGFR2b, high FGFR2c), 6 days, read-out: IC50",> 20 nM
same,Max % Kill,[3]; 6 days,9.9%
same,Kd,[10],> 30 nM
same,Antigen Bound (RU),[10]; antibody captured on anti-human Fc surface,0.6 RU
same,EC50,"[5]; all tested lines, unconjugated antibodies",> 20 nM
same,IC50,"[6]; MFM-223 (FGFR2b positive), 6 days, read-out: IC50",> 20 nM
same,Max % Kill,[6]; 6 days,0.8%
same,Kd,[11],60.8 nM
same,ka,[11],77400 M⁻¹ s⁻¹
same,kd,[11],0.00471 s⁻¹
same,Antigen Bound (RU),[11]; antibody or ADC captured on anti-human Fc surface,68.3 RU
same,t1/2,[11]; dissociative half-life,2.5 min
B3,tolerability in clinical testing,[12],poorly tolerated
B4,tumor growth in xenograft models,[13],inhibited tumor growth
